From the nanobody polyreactivity screen of Harvey et al. (2022)

Experiment: yeast display, Sf9 membrane polyspecificity reagent, FACS + sequencing; frameworks hold sequencing errors
In short: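 Galactose induction of a Saccharomyces cerevisiae BJ5465 synthetic nanobody display library ran 36–48 hours. The cells were then stained for 1 hour at 4 °C with 10% biotinylated, detergent-solubilized Sf9 membrane reagent, pulled down on streptavidin microbeads and FACS-sorted into low and high (top ~1%) gates on expression and reagent-binding fluorescence. Labels for polyreactivity follow the gate of origin.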

Row | Sequence | polyreactivity (PSR sort gate)
1 | QVQLVESGGGLVQAGGILRLSCAASGSTFSYYAMGWYRQAPGKERELVARISKDTGSTYYADSVKGRFTISRDNAKNTVYLQMNSLKPEDTAVYYCAAELDYFPGYDYWGQGTQVTVSS | low polyreactivity
2 | QVQLVESGGGLVQAGSSLRLSCAASGRTFGGYVMGWYRQAPGKERELVAAISSSAGSTYYADSVKGRFTISRDNAKNTVYLQMNSLKPEDTAVYYCAKRSYNPYDHYYRYQYGYWGQGTQVTVSS | high polyreactivity
3 | QVQLVESGGGLVQAGGSLRLSCAASGRTFYRYAMGWYRQAPGKEREFVAAISNGGSNTRYADSVKGRFTISRDNATNTVYLQMNSLKPEDTAVYYCAASAYQHYNWGQGTQVTVSS | high polyreactivity
4 | QVQLVESGGGLVQAGGSLRLSCAASGRTFSLYDMGWYRQAPGKERELVAAISYSGTRTYYADSVKGRFTISRDNAKNTVYLQMNCLKPEDTAVYYCARVYTVGTGRSWRLDYWGQGTQVTVSS | high polyreactivity
5 | QVQLVESGGGLVQAGGSLRLSCAASGSIFTGNAMGWYRQAPGKERELVAAITQRGGRTYYADSVKGRFTISRDNAKNTVYLQMNSLKPKIPAVYYCNAKWTTLFDYWGQGTQVTVSS | high polyreactivity
6 | QVQLVESGGGLVQAGGSLRLSCAASGNIFLYYAMGWYRQAPGKERELVADIDASGASTYYADSVKGRFTIARDNAKKTVYLQLNSLTPEDTAVYYCAAEFHWWYAGYDYGYWGQGTQVTVSS | low polyreactivity
7 | QVQHVESGGGLVQAGGSLRLSCAASGRIFAFYAMGWYRQAPGKEREFVAAITWSGTNTYYADSVKGRFTISRDNAKNTVYLQMNSLKPEDTAVYYCNARQYYKYGYWGQGTQVTVSS | high polyreactivity
8 | QVQLVESGGGLVQAGGSLRLSCAASGNIFRPYTMGWYRQAPGKERELVARISSGGSTNYADSVKGRFTISRDNAKNTVNLQMNSLKPEDTAVYYCAKRYGTVHSRYGYWGQGTQVTVSS | high polyreactivity
9 | QDQLVESGGGLVQAGGSLRLSCAASGSIFRVYVMGWYRQAPGKERELVAAITSSDGSTYYADSVKGRFTISRDNAKNTVYLQMNSLKPEDTAVYYCNAEFYSPRVVVPRYWYPGDYWGQGTQVTVSS | low polyreactivity
10 | QVQLVESGGGLVQAGGSLRLSCAASGFILARNAMGWYRQAPGKERELVAAITRRGGSTYYADSVKGRFTISRDNAKNTVYLQMNSLKPEDTAVYYCAAAAGPIPQERYYWGQGTHVTVSS | high polyreactivity
11 | QVQLVESGGGLVQAGGSLRLSCAASGYIFYGYVMGWYRQAPGKERELVAGITYSGGGGTHYADSVKGRFTISRDNAKNTVYLQMNSLKPEDTAVYYCATADPQLNRTYYSYGMDYWGQGTQVTVSS | low polyreactivity
12 | QVQLVESGGGLVQAGGSLRLSCAASGSIFDPYAMGWYIQAPGKERELDAAITASGSSTYYADSVKGRFTISRDNAKNTVYLQMNSLKPEDTAVYYCAADRANWEYLLSWLGYDYWGQGTQVTVSS | low polyreactivity
13 | QVQLVESGGGLVQAGGSLRLSCAASGRIFGAYAMGWYRQARGKERELVAAIDIRGGNTYYADSVKGRFTISRDNAKNTVYLQMNSLKPEDTAVYYCPADTWYDAYNYWGQGTQVTVSS | low polyreactivity
14 | QVHLVESGGGLVQAGGSLRLSCAASGSILLRYAMGWYRQAPGKERELVAAIRTIGASTYYADSVKGRFTISRDNAKNTVYLQMNSLKPEDTAVYYCNAYLAEVLPLGKGRLYDYWGLGTQVTVSS | low polyreactivity
15 | QVHLVESGGGLVQAGGSLRLSSAPSGSTFDAYDMGWYRQAPGKESELVAAITSGGSTNYADSVKGRFTISRDNAKNTVYLQMNSLKPEDTAVYYCAASPYRGFVSRYGYWGQGTQVTLSS | low polyreactivity
16 | QVQLVESGGGLVQAGGSLRLSCAASGSIFTFYAMGWYRQAPGKERELVARITNVGNTNYADSVKGRFTISRDNAKNTVYLQMNSLKPEDTAVYYCAARWYWGWTRGDYWGQGTQVTVSS | high polyreactivity
17 | QVHLEESGGCLVQAGGSLRLSCAASGLFARNAMGWYRQAPGKERELVAAINRSGGSTYYADSVKGPFTISRDNAKNTVYLQMKSLKPEDTAVYYCNQAFTHTKDLSPIAYEYVFWGQGTQVTVSS | low polyreactivity
18 | QVQLVESGGGLVQAGGSLRLSCAASGSISYYYGMGWYRQAPGKERELVAAISTRGGSTYYADSVKGRFTISRDNAKNTVYLQMNSLKPEDTAVYYCAVRYYRPYSRFDYWGQGTQVTVSS | high polyreactivity
19 | QVQLVESGGGLVQAGGSLRLSCGASGSTFIYYVMGWYRQAPGKEREWVASISTGGRTYYADSVKGRFTSSRDNANHPVYVQMHSLKPEETAVDSCAGAIRSFRRPALYYWGQGTQVTVSS | high polyreactivity
20 | QVQLVESGGGLVQAGGSLRLSCAASGRIQYNAMGWYRQAPGKEREFVAAISWSGGTTYYADSVKGRFTISRDNAKNTVYLQMNRLKPEDTAVYYCATPYTHWGQGTQVTVSS | high polyreactivity
21 | QVQLQESGGGLVQAGGSLRLSCAASGYISFSGYMGRYRQAPGKEREFVDSITPGRSTYYADSVKGRFTISRDNAENTVYLQMNSLQPEDTAVDYCAADDSRTEQHAYWGQGTQVTVRS | high polyreactivity
22 | QVQLVESGGGLVQAGGSLRLSCAASGFTSVDNAMGWYRQAPGNERELVAAIDTSGARTYYADSVKGRFTISRDNAKHTVYLQMNSLKPEDTAVYYCATEYVYDDRLYSTYYYWGQGTQVTVSS | high polyreactivity

Row | Sequence | polyreactivity (PSR sort gate)
23 | QVQLVESGGGLVQAGGSLRLSCAASGITFRSYVMGWYRQAPGKEMEFVAVITKSGGSTYYADSVKGRFTISRDNAMNTVYLQMNSLKPEDTAVYYCGAEYARSSRYKISSEMYYWGQGTQVTVSS | high polyreactivity
24 | QVQLVESGGGLVHAGGSLRLSCAASGFTFGGYALGWYRQAPGKERELVAAITGSGGNTFYADSVKGRFTISRDNAKNTVYLQMNSLKPEDTAVYYCAKTWYPWSRYGYYRRYDSWGQGTQVTVSS | low polyreactivity
25 | QVQLVESGGGLVQAGGSLRLSCAASGLTFSVYAMGWYRQAPGKERELVASISSGGTSTYYADSVKGRFTISRDNAKNTVYLQMNSLKPEDTAVYYCAAYSYYTGDQYSYDYWGQGTQVTVSS | low polyreactivity
26 | QVQLVESGGGLVQAGGSLRLSCAASGRIFRNNAMGWYRQATGKERELVATISSRGGSTYYADSVKGRFTISSDNAKNNVYLQMNSLKPEDTAVYYCNKRWLHWAGYDYWGQGTQVTVSS | high polyreactivity
27 | QVQLVESGGGLVQAGGSLRLSCAASGRIFDHYAMGSYRQAPGKERELVAAISGGGDSTYYAYSVKGRFTISRDNAKNTVYLQMNSLKPEDTAVFYCAADFYVYWGNYAQDYYYWGQGTQVTVSS | high polyreactivity
28 | QVQLVESGGGLVQAGGSLRLSCAASGFIFKTYAMGWYRQAPGKERELVATITRRGGRTYYADSVKGRFTISRDNAKNTVYLQMNSLKPEDTAVYDCAADYALSSLPFDYWGQGTQVTVSS | high polyreactivity
29 | QVQLVESGGGLVQAGGSLRLSCAASGFIFRAYTKGWYRQAPGKERELVAAITSSGGRTNYADSVKGRFTISRDNAKNTVYLQMNSLKPEDTAVYYCATVYAKWKQFDYWGQGTQVTVSS | high polyreactivity
30 | QVQLVESGVGLVQPGGSLRLSSAASGSTSLVNAMRRYRQAPGKERELVAAITRGGNTYYADSVKGRFTISRDNAKNTVYLQMNSLKPEDTAVYYCAAEDHSELGQYDYWGQGTQVTVSS | low polyreactivity
31 | QVQLVESGGGLVQAGASLRLSCAASGRIFSRNTMGWSRQAPGKECEFVAAISQSGGRTYYADSVKGRFTISRDNAKNTVYLQMNSLKPEDTAVYYCNAQFARSSGFNYWGQGTQVTVSS | high polyreactivity
32 | QVQLVESGGGLVQAGCSLRLSSAASGTIFGYYTMGRYRQAPGKEREIVAAISRSGGSTYYADSVKGRFTISRDNAHNTGYLQMNSLKPEHTAVYYCNADVYWEYDYWGQGTQVTVSS | low polyreactivity
33 | QVQLVESVGGLVQAGGSLRLSCPASGSIFYANAMGGYRQAPGKERELVATISTGGGRTYYADSVKGRFTISRDKAKNTVYLQMNSLKAEDTAVYYCNATRNYARVRYYYWGKGTQVTVSS | high polyreactivity
34 | QVQLVESGGALVQAGGSLRLSCAASAFIFRINAMGWYRQAPGKERELVAAISGSGGRTYYADSVKGRFTISRDNAKNTVYLQMNSLKPVDTAVYYCARSSGYGFNYWGQGTQVTVSS | high polyreactivity
35 | QDQLVESGGGLVQAGGSLRLSCAASGLTFYVNAMGWYRQAPGTERELDAAITWSGGSTHYADSVKGRFTISRDNAKNTVYLQMNSLKPEDTAVYYCGRATFQNSYVAYDYCGQGTQVTVSS | low polyreactivity
36 | QVQLVESGGGLVQAGGSLRLICAASGYIFKYYAMGWYRQAPGKERELVATINYSGGGTYYADSVKGRFTISRDNAKNTVYLQMNSLKPEDTAVYYCAAREKYISYSYYYWGQGTQVTVSS | high polyreactivity
37 | QVQLVESGGGLVQAGGSLRLSCAASGRIFGWNAMGWYRQAPGKERELVAGISSSGGSTYYADSVKGRFTISRDNAKNTVYLQMNSLKPEDTAVYYCARRHYVGYYGYYYWGQGTQVTVSS | high polyreactivity
38 | QVQLVESGGGLVQAGGSLRLSCAASGSIFRYNTMGWYRQAPGKERELVAAITSSGGRTYYADSVKGRFTISRDNAKNTVYLQMNSLKPEDTAVYYCAARRSFYGRVYDDQYDYWGQGTQVTVSS | high polyreactivity
39 | QVQLVESGGGLVQAGGSLRLSCAASGSTFRGYAMGWYRQEPGKERELVAAITSGGSTNYADSVKGRFTISRDNAKNTVYLQMISLKPEDTAVYYCNADYTYLYDPNDYWGQGTQVTVSS | low polyreactivity
40 | KDQLVESGGGLVQAGGSLRLSCAASGLTFGGNAMGWYRQAPGKERELVAGISSSGNTNDADSVKGRFTISRDNAKNTVYLQLNSLKPEDTAVYYCAADENITYPVYDLYYWGQGTQVTVSS | low polyreactivity
41 | QVQLVESAGGLVQAGGSLSLSCAASGFTFYRNAMGWYRQAPGQERELVAAISRSGGRTYYADSVKGRFTISRDNAKNTVYLQMNSLKPEDTSVYYCAVYVTRDSGWWLYDYWGQGTQVTVSS | high polyreactivity
42 | QVQLVESGGGLVQAGGSLRLSCAASGRIFVSNAMGWYRQAPGKERELVAAISKSGGRTYYADSVKGRFTISRDNAKNTVYLQMNSLKPEDTAVYYCNAVISLPGNKYDYWGQGTQVTVSS | high polyreactivity
43 | QLQLVESGGGLVQAGGSLRFSCAASGFTFVWYVRGWYRQAPVKARELVASSTSTGSTNYADSVKGRYTISRDNAKNTVYLQMNSLKPEDTAVYYCNARGSYKRTRYGKWGQGTQVTVSS | high polyreactivity
